Laboratory results reported in the nanobody polyreactivity screen of Harvey et al. (2022).

assay: yeast display, Sf9 membrane polyspecificity reagent, FACS + sequencing; frameworks hold sequencing errors
In short: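 Nanobodies came from a synthetic yeast display library in Saccharomyces cerevisiae BJ5465, induced with galactose for 36–48 hours and stained for 1 hour at 4 °C with 10% biotinylated, detergent-solubilized Sf9 membrane reagent. Cells were enriched on streptavidin microbeads and then FACS-sorted, with low and high (top ~1%) gates set on anti-HA fluorescence for expression and streptavidin fluorescence for reagent binding. Each polyreactivity label reflects the gate a clone came from. Genes were amplified by colony PCR, sequenced by MiSeq 2 × 250 and filtered by CDR length.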

| Sequence | polyreactivity (PSR sort gate) |
| --- | --- |
| QVQLVESGGGLVQAGGSLRLCCAASGSTFYYYAMGWYRQAPGKEREFVASISSRGTSTYYADSVKGRFTISRDNAKNTVYLQLNSLKPEDTAVYYCAARGWGPTRAYDYSGQGTQVTVSS | high polyreactivity |
| QVQLVESGGGLVQAGGSLRLSCAASGSIFVWYAMGWYRQAPGKERELVAVISYGGDRTSYADSVKGRFTISRDNAKNTVYLQMNSLKPEDTAVYYCAARPFYRGYYYWGQGTQVTVSS | high polyreactivity |
| QVQLVESGGGLVQAGGSLRLSCAASGNIFPAYAMGWYRPAPGKERELVATISRRGGGTYYADSVKGRFTISRDNAKNTVYLQMNSLKPEDTAVYYCNGAGWTSAYDYWGQGTQVTVSS | low polyreactivity |
| QVQLVESGGGLVQAGGSLRLSCAASGSIFGIYVMGWYRQAPGKERELVAAISDGGSTYYADSVKGRFTISRDNAKNTVYLQMNSLKPEDTAVYYCAAEVHGWYSYYYWGQGTQVTVSS | high polyreactivity |
| QDQLVESGGGLVQAGGSLRLSCAASGSIFGRNTMGWYRQAPGKERELVAAISSSGGSTRYADSVKGRFTISRDNAKNTVYLQMNSLKPEDTAVYYCNAKRYGGRQASYNLGDYWGQGTEVTVSS | high polyreactivity |
| QVQLVESGGGLVQAGGSLRLSCAASGSTFSKNAMGWYREAPGKERELVAAISGSGGSTYYADSVKGRFTISRDNAKKTVYLQMNSLKPEESAVYYCAARYSGRRYGYWGQGTQVTVSS | high polyreactivity |
| QVQLVESGGGLVQAGGSLRLSCAASGITILNYVMGWYRQAPGKERELVAGINFSGDGTYYADSVKGRFTISRDNAKNTVFLLMNSLKPEDTAVYYCAADWLSVSRIYYSWGQGTQVTVSS | low polyreactivity |
| QVQLVESGGGLVQAGGSLRLSCAASGSILSGYAMVWYRQAPGTERELVAAITSGGDTNYADSVKGRFTISRDNAKNTVYLQMNSLKPEETAVYYCAADPSYLGLFGYDYWGQGTQVTVSS | low polyreactivity |
| QVQLVESVGGLVQAGGSLRLSCAASGSIFLQYTMGWYRQAPGKERELVAAITESDGSTYYADSVKGRFTISRDNAKNTVYLQMNSLKPEDTAVYYCAADVVYFKYWDKYDYWGQGTQVTVSS | low polyreactivity |
| QVQLVESGGGLVQAGGSLRLSCADSGSTFPWYAMGWYRQAHGKERELVADISFSGGSTYYSDSVKGRFTISRDNAKNTVYLQMNSLKPEDTAVYYCASETSFLRHAYQSDSFDYWGQGTQVTVSS | high polyreactivity |
| QVQLVESGGGLVQAGGCLRLSCAASGVIFTRNVMGWYRQAPGKERELVAAISSGGRTYYADSVKGRFTISRDNAKNTVYLQMNSLKQEDTAVYYCNAGNRGVYRYDYWGQGTQVTVSS | high polyreactivity |
| QVQLVESGGGLFQAGGRLRLSCAASGRIFWLYAMGWYRQAPGKERELVAAITGIGGSTYYADSVKGRFTISRDNAKNTVYLQMNSLKPEDTAVYYCAARSPATYPSMGYWGQGTQGTVSS | low polyreactivity |
| QVQLVESGGGLVQAGGSLRLSCAASGITIRRYAMGWYRQAPGKERELVAAITTGGGGTYYADSVKGRFTISRDNAKNTVYLQMNSLKPEDTAVYYCAATYWRTYPSYYWGQGTQVTVSS | high polyreactivity |
| QVQLVESGGGLVQAGGSLRLSCAASGITYYNAMGWYRQAAGKERELVARISWSSVSTYYADSVKGRFTISRDNAKNTVYLQMNSLKPEDTAVYYCAAEVRGSDYDYWGQGTQLTVSS | high polyreactivity |
| QVQLVESGGGLVQAGGSLRLSCAASGIIFKLYAMGWYRQAPGKEREFVATITKTCGRTYYADSVKGRFTISRDNAKNTVYLQMNSLKPEDTAVYYCAARRVNGKMYYWGQGTQVTVSS | high polyreactivity |
| QVQLVESGGGLVQAGGSLRLSCAASGSIFVEYAMGWYRQAPGKERELVAGISSGGITSYADSVKGRFTISRDNAKNTVYLQMNSLKPEDTAVYYCATDPYKWFFSSYYLLQEVEYWGQGTQVTVSS | low polyreactivity |
| QVQLVESGGGLVQAGGSLRISCAASGFIFQSNAMGWYRQAPGKERELVAAISWSGDNTYYADSVKGRFTISRDNAKNTVYLQMNSLKPEDTAVYYCAAVPYPSYYDTGYDYWGQGTQVTVSS | low polyreactivity |
| QVQLVESGGGLVQAGGSLRLSCAASGITFYDNVMGWYRQAPGKERELVAAITSGGSTNYGDSVKGRFTFSRDNAKNTVYLQMNSLKPEETAVYYCAAQPRVVYEFPYRYGYWGQGTQVTVSS | low polyreactivity |
| QVQLVESGGGLVQAGGSLRLSCAASGYIFKRYAIGWNRQAPGKERELVAAISGNGGSTYYADSVKGRFTISRDNAKNTVYFQMNSLKPEDTAVYYCNKSGYYSPTSKGEYWGQGTQVTVSS | low polyreactivity |
| QVQLVESGGGLVQAGGSLRLSCAASGRIFTQNAMGWYRQAPGKERELVAAINYSGGRTYYADSVKGRFTISRDNAKNTVYLQMNSLKPEDTAVYYCAAEWYTRFYISYGYWGQGTQVTVSS | high polyreactivity |
| QVQIVESGGGLVQAGGSLRLSCAASGRTVKFYAMGWYRQAPGKERELVARITSNSGSTYYADSVKGRFTISRDNAKNTVYLQMNSLKPEDTAVYYCAARGRYRQFNYWGQGTQVTVSS | high polyreactivity |
| QVQLVESGGGLVQAGGSLRLSSAACGTIFVLNAMGWYRPAPGKERELVAAITNVGSTYYADSVKGRFTISRDNAKNTFYLQMNSLKPEDTAVYYCNADPGEVLVGYDYWGQGTQVTVSS | low polyreactivity |

| Sequence | polyreactivity (PSR sort gate) |
| --- | --- |
| QVQLVESGGGIVQAGGSLRLSCAASGSIFSFYAMGWYRQAPGKERELVAAIDVSGGSTYYADSVKGRFTISRDNAKNSVYLQMNSLKPEDTAVYYCAKDVRDQYDYWGQGTQVTVSS | low polyreactivity |
| QVQLVESGGGLVQAGGSLRLSCAASGSTFGLYVMGWYRQAPGKERELVATITRSGGSTYADSVKGRFTISRDNAKNTVYLQMNSLKPEDTAVYYCNADYPKPVYYSYWHQEFEYWGQGTQVTVSS | low polyreactivity |
| QVQLVESGGGLVQAGGSLRLSCAASGSTFYTNDMGWYRQAPGKERELVAAITSAGNTNYADSVKGRFTISRDNAKNTVYLQMNSLKPEDTAVYYYYYYQYDYWGQGTQVTVSS | low polyreactivity |
| QVQLVESGGGLVQAGGSLRLSCAASGLIFFNYYAMGWYRQAPGKERELVAAIRYGGGSTYYADSVKGRFTISRDNAKNTVYLLMNSLKPEDTAVDYCAARFKGYYRYGYWGQGTQVTVSS | high polyreactivity |
| QVQLVESGGGLVQAGGSLRLSCAATGRPSTSMLWDGIDRRLGKKGSSLTYYADSVKGRFTISRDNAKNTVYLQMNCLKPEDTAVYYCNKRRRWDNYGYRYGYWGQGTQVTVSS | low polyreactivity |
| QVQLVESGGGLVQAGGSLRLSCAASGRIFYLYAMGWYRQATGKERELVAAITWSGGSTTYADSVKGRFTISRDTAKNTVYLQMNSLNPEDTAVYYCNADGWIFPSFSPMDYWGQGTQVTVSS | low polyreactivity |
| QVQRVESGGCLVQAGGSLRLSCAASGIIFGDNVRGWYRQSPGKERQLVAAITSDGSTNYADSVKGRFTISSDNEKNNVYLQMNSLKPEDTAVYYCNVSASYYSPDPKVLVRYDYWGQGSQVTVSS | low polyreactivity |
| QVQLVESGGGLVQAGGSLRLSCAASGSIFIYYAMGWYRQAPGKERELVAAISWSGGDTYYADSVKGRFTISRDNAKNTVYFHMNILKPEDTAVYYCNADYYPYYPYTAWDTVLTHDEYWGQGTQVTVSS | low polyreactivity |
| QVHLVESGGGLVQAGGSLRLSCAASGSIYHNAMGWYRQAPGKERELVAAITSSGGRTYYADSVKGRFTISRDNAKNTVYLQMNSLKPEDTAVYYCNALAHQYHRYEFGYWGQGTQVTVSS | low polyreactivity |
| QVQLVESGGGLVQAGGSLRLSCAASGRTFRYNAMGWYRQAPGKERELVAAINWNGGSTYYADSVKGRFTISRDNAKNTGYLQMHSLKPEDTAVYYCNADFYHRYDWGQGTQVTGSS | high polyreactivity |
| QVQLVESGGGLVQAGGSLRLSCAASGSTFDYNAMGWYRQAPGKEMELVAAISRGGNTDYADSVKGRFTISRDNAKNTVYLQMNSLKPEDSAVYYCDADALLEWFDVAYFAYEYWGQGTQVTVSS | low polyreactivity |
| QVQLVESGGALVQAGGSLRLSCAASGSTFSWYAMGWYRQAPGKERELVAAITTRGGSTYYADSVKGRFTISRDNAKNTVYLQMTRLKPEDTAVYYCAADDGWDFGRGRYDYWGQGTQVTVSS | low polyreactivity |
| QVQLVESGVCLVQAGGSLRLSCAASGIIISTYAMGWYRQAPGKERELVAAITWGGTRTNYADSVKGRFTISRDNAKNTVYLQMKSLKPEDTAVYYCAASYVRDSYTHGSWGQGTQVTVSS | low polyreactivity |
| QVQLVESGGGLVQAGGRLRLSCAASGSTFLVYAMGWYRQAPGKERELVAAIDSGVSTYYADSVKGLFTISRDNAKNTVYLQMNSLKPEDTAVYYCNGYDYWGQGTQVTVSS | low polyreactivity |
| QVQLVESGGGLVQAGGSLRLSCAASGRTFLVYAMGWYRQPPGTERELVAAITSGGSTYYADSVKGRFTISRDNAKNTVYLQMNSLKPEDTAVYYCAAKIRGYPRRRYDYWGQGTQVTVSS | high polyreactivity |
| QVQLVESGGGLVQAGGSLRLSCAASGLTFRGYAMGWYRQAPGKERELVAAITSSAGRTYYADSVKGRFTISRDNAKNTVYLQLNSLKQEDTAVYYCAAAHSYTTRWGYYKFNYWGQGTKVTVSS | high polyreactivity |
| QVQLVESGGGLVQAGGSLRLSCAASGLIFQYYAMGWSRQAPGKERELVASISWSGSSTYYADSVKGRFTISRDNAKNTVYLQMISLKPEDTAVYYCAAGWGRGWYDYWGQGTQVTVSS | high polyreactivity |
| QVQLVESGRGLVEAGGSLRLSCAASGSTFWAYVMGWSRQAPGKERELVAAITSSGGSTYYADSVKGRFTISRDYAKNTVYLQMNILKPEDTAVYYCAADYFYPYYGAMDYWGQGTQVTVSS | low polyreactivity |
| QVQLVESGGGLVQAGGSLRLSCAASGFIFRAYAMGWYRQAPGKERELVAAITKRSGTTYYADSVKGRFTISRDNAKNTVYLQMHSLKPEDTAVYYCAARYYRDYRWYTYAYDYWGQGTQVTVSS | high polyreactivity |
| QVQLVESGGGLVQAGGSLRLSCASSGRTFAYNAMGRYRQAPGKERELVAAITSSGGSTYYADSVKGRFTISRDNAKNTVYLQMNSLKPEDTAVYYCASYVRPDYYAIHVDYWGQGTQVTVSS | low polyreactivity |
| QVQLVESGGGLVQAGGSLRLSCAASGSTFWGYAMGWYRQAPGKERELVAAITSGGRTDYADSVKGRFTISRHNAKNTVYLQMNSRKPEDTAVYYCNAYLYYYRYHYNYWGQGTQVTVSS | low polyreactivity |
